The text below walks through data of doi:10.1101/2023.12.12.571217 (2023).

Assay [1] deals with T1, N-terminally biotinylated PADI4 (bio-His-PADI4), recombinant human peptidylarginine deiminase IV (human, UniProt Q9UM07 1-663, biotin on the N-terminal Avi-Tag (BirA co-expression)). The assay is described as follows: SPR.
For another assay, the target named is PADI4 variant R394A (human, UniProt Q9UM07 1-663, R394 with an alanine). The assay is described as follows: SPR. (SPR reads the build-up and loss of mass on a sensor chip optically.)
A further assay concerns the target PADI4 variant C166F (human, UniProt Q9UM07 1-663, C166 with bulky phenylalanine). Kind of assay: SPR.
Another assay deals with PADI4_D165A (human, UniProt Q9UM07 1-663, D165A). The assay is described as follows: SPR.
The next assay deals with PADI4 variant D168A (human, UniProt Q9UM07 1-663, D168A). The assay is described as follows: SPR.
Assay [2] addresses T1, N-terminally biotinylated PADI4 …. The assay is described as follows: SPR. The source holds these as a separate data set.
For the next assay, the target named is PADI4 variant E167A (human, UniProt Q9UM07 1-663, E167A). Kind of assay: SPR.
In a further assay the target is PADI4_N373A. Kind of assay: SPR.
Assay [3] deals with T1, N-terminally biotinylated PADI4 …. The assay is described as follows: SPR; 0 mM CaCl2.
Assay [4] shares this target. Kind of assay: SPR; 10 mM CaCl2.
Assay [5] shares this target. Kind of assay: SPR; 10 mM CaCl2 + Cl-amidine.

Positions of bridges follow the written chain, without caps; N, C: chain ends.

T1 sequence (Q9UM07 whole entry): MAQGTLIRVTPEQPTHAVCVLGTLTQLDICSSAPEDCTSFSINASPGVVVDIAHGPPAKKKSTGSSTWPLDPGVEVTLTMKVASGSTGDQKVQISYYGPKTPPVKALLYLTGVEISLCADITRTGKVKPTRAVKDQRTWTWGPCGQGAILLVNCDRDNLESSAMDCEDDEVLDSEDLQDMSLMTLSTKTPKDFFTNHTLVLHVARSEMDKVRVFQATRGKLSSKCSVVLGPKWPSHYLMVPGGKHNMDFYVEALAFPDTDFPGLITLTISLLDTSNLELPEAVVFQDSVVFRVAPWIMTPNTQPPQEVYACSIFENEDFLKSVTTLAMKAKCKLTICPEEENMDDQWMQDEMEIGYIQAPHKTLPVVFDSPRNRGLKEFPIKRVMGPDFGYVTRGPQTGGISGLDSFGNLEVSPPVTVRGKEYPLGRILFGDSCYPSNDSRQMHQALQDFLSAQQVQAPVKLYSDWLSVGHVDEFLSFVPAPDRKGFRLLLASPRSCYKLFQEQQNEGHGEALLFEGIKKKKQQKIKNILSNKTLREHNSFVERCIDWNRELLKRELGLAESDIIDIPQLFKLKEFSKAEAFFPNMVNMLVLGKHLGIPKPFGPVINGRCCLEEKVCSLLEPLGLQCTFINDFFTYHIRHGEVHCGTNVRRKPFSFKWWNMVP
Sequence of PADI4 variant C166F (Q9UM07 whole entry C166F): as the sequence (Q9UM07 whole entry) above, with C166F counted along it
Sequence of PADI4 variant R394A (Q9UM07 whole entry R394A): as the sequence (Q9UM07 whole entry) above, with R394A counted along it
Sequence of PADI4_D165A (Q9UM07 whole entry D165A): as the sequence (Q9UM07 whole entry) above, with D165A counted along it
Sequence of PADI4 variant E167A (Q9UM07 whole entry E167A): as the sequence (Q9UM07 whole entry) above, with E167A counted along it
Sequence of PADI4 variant D168A (Q9UM07 whole entry D168A): as the sequence (Q9UM07 whole entry) above, with D168A counted along it

For {CH2CO}-YESCKYRQVLQL-NH2 (thioether N-4) [PADI4_11 variant with lysine at R5], the Kd in assay [1] was 1400 nM.

B1: PADI4_11 (peptide)
chain: {CH2CO}-YESCRYRQVLQL-NH2
modifications: thioether N-4
SMILES: CC(C)C[C@H](NC(=O)[C@H](CCC(N)=O)NC(=O)[C@H](CC(C)C)NC(=O)[C@@H](NC(=O)[C@H](CCC(N)=O)NC(=O)[C@H](CCCNC(=N)N)NC(=O)[C@H](Cc1ccc(O)cc1)NC(=O)[C@H](CCCNC(=N)N)NC(=O)[C@@H]1CSCC(=O)N[C@@H](Cc2ccc(O)cc2)C(=O)N[C@@H](CCC(=O)O)C(=O)N[C@@H](CO)C(=O)N1)C(C)C)C(N)=O
Take B1: the Kd with PADI4 variant R394A is above 10000 nM; in the assay with PADI4 variant C166F, above 10000 nM; with PADI4_D165A, 3000 nM; with PADI4 variant D168A, 4000 nM; in [2] it was 457 nM; with PADI4 variant E167A it was 700 nM. Further, the Kd was 500 nM in [1]; above 10000 nM with PADI4_N373A; above 5000 nM in assay [3]; 457 nM in assay [4]; 382 nM in assay [5].
Consider {CH2CO}-YESCRYKQVLQL-NH2 (thioether N-4) [PADI4_11 variant with lysine at R7], for which, in assay [1], the Kd was 700 nM.

By Kd is commonly meant the equilibrium constant for the complex coming apart.
